Assay results published in PMC2900545.

Substrate: CCc1c2c(nc3ccc(O)cc13)-c1cc3c(c(=O)n1C2)COC(=O)[C@]3(O)CC
Assay: purified protein
Details: UDPGA

B1: UGT1A1 (Homo sapiens) (protein)
chain: HAGKILLIPVDGSHWLSMLGAIQQLQQRGHEIVVLAPDASLYIRDGAFYTLKTYPVPFQREDVKESFVSLGHNVFENDSFLQRVIKTYKKIKKDSAMLLSGCSHLLHNKELMASLAESSFDVMLTDPFLPCSPIVAQYLSLPTVFFLHALPCSLEFEATQCPNPFSYVPRPLSSHSDHMTFLQRVKNMLIAFSQNFLCDVVYSPYATLASEFLQREVTVQDLLSSASVWLFRSDFVKDYPRPIMPNMVFVGGINCLHQNPLSQEFEAYINASGEHGIVVFSLGSMVSEIPEKKAMAIADALGKIPQTVLWRYTGTRPSNLANNTILVKWLPQNDLLGHPMTRAFITHAGSHGVYESICNGVPMVMMPLFGDQMDNAKRMETKGAGVTLNVLEMTSEDLENALKAVINDKSYKENIMRLSSLHKDRPVEPLDLAVFWVEFVMRHKGAPHLRPAAHDLTWYQYHSLDVIGFLLAVVLTVAFITFKCCAYGYRKCLGKKGRVKKAHKSKTH
Km: 2.5 ± 0.3 µM
